From patent US20180155407A1 (Sanofi, published 2018)
Numbered stars: 1 amine (or outer) side, 2 acyl side, 3 side chain; on linkers, the order of the positions; unused ones are H or OH. Square brackets hold non-standard residues; d marks the D form. Side chains are listed from the residue outwards. Ends that are not written are not given here. * marks the point of attachment. γGlu = O=C(O)[C@H](CCC(=O)[*:2])N[*:1]; Palmitoyl = CCCCCCCCCCCCCCCC(=O)*; gAAA = not defined here; AEEA = NCCOCCOCC(=O)O; Aib = CC(C)(N)C(=O)O

T1: human GIP receptor (human, UniProt P48546 22-466)
T1 sequence (looked up): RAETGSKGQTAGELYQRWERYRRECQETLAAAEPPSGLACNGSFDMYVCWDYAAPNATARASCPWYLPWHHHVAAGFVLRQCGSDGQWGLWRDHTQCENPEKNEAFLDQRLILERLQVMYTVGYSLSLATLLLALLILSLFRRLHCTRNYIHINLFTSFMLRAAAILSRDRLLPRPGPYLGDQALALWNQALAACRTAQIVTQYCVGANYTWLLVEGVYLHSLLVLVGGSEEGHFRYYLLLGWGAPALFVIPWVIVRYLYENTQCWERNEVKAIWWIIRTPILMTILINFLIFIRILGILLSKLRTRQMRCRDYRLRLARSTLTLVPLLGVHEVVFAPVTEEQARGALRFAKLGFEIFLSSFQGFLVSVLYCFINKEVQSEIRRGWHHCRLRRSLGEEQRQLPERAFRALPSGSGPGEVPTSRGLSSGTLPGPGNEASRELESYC

B1: SEQ ID NO: 6 (peptide)
peptide: H[Aib]QGTFTSDLSKLK([γGlu-γGlu-Palmitoyl])EKQRQ[Aib]EFIEWLKAGGPPS[Aib]KPPPK-NH2
modifications: N-terminus assumed
SMILES: CCCCCCCCCCCCCCCC(=O)N[C@@H](CCC(=O)N[C@@H](CCC(=O)NCCCC[C@H](NC(=O)[C@H](CC(C)C)NC(=O)[C@H](CCCCN)NC(=O)[C@H](CO)NC(=O)[C@H](CC(C)C)NC(=O)[C@H](CC(=O)O)NC(=O)[C@H](CO)NC(=O)[C@@H](NC(=O)[C@H](Cc1ccccc1)NC(=O)[C@@H](NC(=O)CNC(=O)[C@H](CCC(N)=O)NC(=O)C(C)(C)NC(=O)[C@@H](N)Cc1c[nH]cn1)[C@@H](C)O)[C@@H](C)O)C(=O)N[C@@H](CCC(=O)O)C(=O)N[C@@H](CCCCN)C(=O)N[C@@H](CCC(N)=O)C(=O)N[C@@H](CCCNC(=N)N)C(=O)N[C@@H](CCC(N)=O)C(=O)NC(C)(C)C(=O)N[C@@H](CCC(=O)O)C(=O)N[C@@H](Cc1ccccc1)C(=O)N[C@H](C(=O)N[C@@H](CCC(=O)O)C(=O)N[C@@H](Cc1c[nH]c2ccccc12)C(=O)N[C@@H](CC(C)C)C(=O)N[C@@H](CCCCN)C(=O)N[C@@H](C)C(=O)NCC(=O)NCC(=O)N1CCC[C@H]1C(=O)N1CCC[C@H]1C(=O)N[C@@H](CO)C(=O)NC(C)(C)C(=O)N[C@@H](CCCCN)C(=O)N1CCC[C@H]1C(=O)N1CCC[C@H]1C(=O)N1CCC[C@H]1C(=O)N[C@@H](CCCCN)C(N)=O)[C@@H](C)CC)C(=O)O)C(=O)O
B2: SEQ ID NO: 19 (peptide)
peptide: H[Aib]QGTFTSDLSKLK([γGlu-γGlu-AEEA-Palmitoyl])EEQRQ[Aib]EFIEWLKA[dA]GHPS[Aib]KPPPK-NH2
modifications: N-terminus assumed
SMILES: CCCCCCCCCCCCCCCC(=O)NCCOCCOCC(=O)N[C@@H](CCC(=O)N[C@@H](CCC(=O)NCCCC[C@H](NC(=O)[C@H](CC(C)C)NC(=O)[C@H](CCCCN)NC(=O)[C@H](CO)NC(=O)[C@H](CC(C)C)NC(=O)[C@H](CC(=O)O)NC(=O)[C@H](CO)NC(=O)[C@@H](NC(=O)[C@H](Cc1ccccc1)NC(=O)[C@@H](NC(=O)CNC(=O)[C@H](CCC(N)=O)NC(=O)C(C)(C)NC(=O)[C@@H](N)Cc1c[nH]cn1)[C@@H](C)O)[C@@H](C)O)C(=O)N[C@@H](CCC(=O)O)C(=O)N[C@@H](CCC(=O)O)C(=O)N[C@@H](CCC(N)=O)C(=O)N[C@@H](CCCNC(=N)N)C(=O)N[C@@H](CCC(N)=O)C(=O)NC(C)(C)C(=O)N[C@@H](CCC(=O)O)C(=O)N[C@@H](Cc1ccccc1)C(=O)N[C@H](C(=O)N[C@@H](CCC(=O)O)C(=O)N[C@@H](Cc1c[nH]c2ccccc12)C(=O)N[C@@H](CC(C)C)C(=O)N[C@@H](CCCCN)C(=O)N[C@@H](C)C(=O)N[C@H](C)C(=O)NCC(=O)N[C@@H](Cc1c[nH]cn1)C(=O)N1CCC[C@H]1C(=O)N[C@@H](CO)C(=O)NC(C)(C)C(=O)N[C@@H](CCCCN)C(=O)N1CCC[C@H]1C(=O)N1CCC[C@H]1C(=O)N1CCC[C@H]1C(=O)N[C@@H](CCCCN)C(N)=O)[C@@H](C)CC)C(=O)O)C(=O)O
B3: SEQ ID NO: 18 (peptide)
peptide: H[Aib]QGTFTSDLSKLK([γGlu-γGlu-AEEA-Palmitoyl])EEQRQ[Aib]EFIEWLKAGGHPS[Aib]KPPPK-NH2
modifications: N-terminus assumed
SMILES: CCCCCCCCCCCCCCCC(=O)NCCOCCOCC(=O)N[C@@H](CCC(=O)N[C@@H](CCC(=O)NCCCC[C@H](NC(=O)[C@H](CC(C)C)NC(=O)[C@H](CCCCN)NC(=O)[C@H](CO)NC(=O)[C@H](CC(C)C)NC(=O)[C@H](CC(=O)O)NC(=O)[C@H](CO)NC(=O)[C@@H](NC(=O)[C@H](Cc1ccccc1)NC(=O)[C@@H](NC(=O)CNC(=O)[C@H](CCC(N)=O)NC(=O)C(C)(C)NC(=O)[C@@H](N)Cc1c[nH]cn1)[C@@H](C)O)[C@@H](C)O)C(=O)N[C@@H](CCC(=O)O)C(=O)N[C@@H](CCC(=O)O)C(=O)N[C@@H](CCC(N)=O)C(=O)N[C@@H](CCCNC(=N)N)C(=O)N[C@@H](CCC(N)=O)C(=O)NC(C)(C)C(=O)N[C@@H](CCC(=O)O)C(=O)N[C@@H](Cc1ccccc1)C(=O)N[C@H](C(=O)N[C@@H](CCC(=O)O)C(=O)N[C@@H](Cc1c[nH]c2ccccc12)C(=O)N[C@@H](CC(C)C)C(=O)N[C@@H](CCCCN)C(=O)N[C@@H](C)C(=O)NCC(=O)NCC(=O)N[C@@H](Cc1c[nH]cn1)C(=O)N1CCC[C@H]1C(=O)N[C@@H](CO)C(=O)NC(C)(C)C(=O)N[C@@H](CCCCN)C(=O)N1CCC[C@H]1C(=O)N1CCC[C@H]1C(=O)N1CCC[C@H]1C(=O)N[C@@H](CCCCN)C(N)=O)[C@@H](C)CC)C(=O)O)C(=O)O

How the values were obtained:
Assay in all cases: cell-based or functional assay
human GIP receptor = molecular target: T1, human GIP receptor
human glucagon receptor = human glucagon receptor (human, UniProt P47871 26-477)
Chain of human glucagon receptor (P47871 26-477): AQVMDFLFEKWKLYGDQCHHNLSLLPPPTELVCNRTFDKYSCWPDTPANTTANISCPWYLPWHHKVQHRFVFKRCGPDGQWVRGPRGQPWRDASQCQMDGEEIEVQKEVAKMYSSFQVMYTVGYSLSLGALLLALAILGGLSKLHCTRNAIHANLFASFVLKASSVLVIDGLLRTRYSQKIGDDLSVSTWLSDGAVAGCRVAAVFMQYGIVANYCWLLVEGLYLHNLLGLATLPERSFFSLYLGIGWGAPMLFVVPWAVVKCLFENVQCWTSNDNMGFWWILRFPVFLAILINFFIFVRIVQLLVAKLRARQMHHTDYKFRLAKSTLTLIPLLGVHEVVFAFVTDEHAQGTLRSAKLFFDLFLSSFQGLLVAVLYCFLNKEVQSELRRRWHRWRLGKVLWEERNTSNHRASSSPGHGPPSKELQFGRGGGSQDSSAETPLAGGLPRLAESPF

human GLP-1 receptor = human GLP-1 receptor (human, UniProt P43220 24-463)

| Binder | EC50 hGIP R (cAMP formation) (human GIP receptor) [pM] | EC50 hGlucagon R (cAMP formation) (human glucagon receptor) [pM] | EC50 hGLP-1R (cAMP formation) (human GLP-1 receptor) [pM] |
| --- | --- | --- | --- |
| B1 | 7.9 | 16.4 | 2.8 |
| H[Aib]QGTFTSDLSKLK([γGlu-AEEA-gAAA-Palmitoyl])EKQRQ[Aib]EFIEWLKAGGHPS[Aib]KPPPK-NH2 (reading uncertain) [SEQ ID NO: 20] | 12.7 | 44 | 2.4 |
| H[Aib]QGTFTSDLSKLK([γGlu-AEEA-gAAA-Palmitoyl])EEQRQ[Aib]EFIEWLKAGGHPS[Aib]KPPPK-NH2 (reading uncertain) [SEQ ID NO: 22] | 6 | 108 | 2.1 |
| B2 | 7.9 | 52.2 | 1.9 |
| H[Aib]QGTFTSDLSKLK([γGlu-AEEA-gAAA-Palmitoyl])EEQRQ[Aib]EFIEWLKA[dA]GHPS[Aib]KPPPK-NH2 (reading uncertain) [SEQ ID NO: 23] | 2 | 64.3 | 1 |
| B3 | 5.6 | 46.6 | 1.7 |
| H[Aib]QGTFTSDLSKLK([γGlu-AEEA-gAAA-Palmitoyl])EKQRQ[Aib]EFIEWLKA[dA]GHPS[Aib]KPPPK-NH2 (reading uncertain) [SEQ ID NO: 21] | 24.6 | 69.9 | 4.2 |
